Experimental data: paper PMC3921674 (2014)

B1: MLL1(3762-3802) (peptide)
chain: GSARAEVHLRKSAFDMFNFLASKHRQPPEYNPNDEEEEEVQ
B2: H3(1-10) (peptide)
peptide: ARTKQTARKS

Key:
[1] = molecular target: WDR5 F266A (isothermal calorimetry) (UniProt P61964 1-334, F266A); experiment: ITC
[2] = molecular target: WDR5 (wild type, isothermal calorimetry) (UniProt P61964 1-334); experiment: ITC

Binder	Kd [1]	Kd [2]
B1	0.6 µM	0.97 µM
B2	34.7 µM	31.1 µM
